Target: HSP90–CDC37–BRAF^V600E complex (human) (UniProt P08238)
Assay: cryo-EM structure; HSP90–CDC37–BRAF^V600E complex incubated with PP5 D274N, purified by SEC, cross-linked with 1 mM BS3; one sample gave three classes: HCK (3.4 Å), HCK-P open (4.2 Å), HCK-P closed (3.9 Å); PP5 modelled by rigid-body docking

Chain of HSP90–CDC37–BRAF^V600E complex (human) (P08238 whole entry, chain 1 of 3): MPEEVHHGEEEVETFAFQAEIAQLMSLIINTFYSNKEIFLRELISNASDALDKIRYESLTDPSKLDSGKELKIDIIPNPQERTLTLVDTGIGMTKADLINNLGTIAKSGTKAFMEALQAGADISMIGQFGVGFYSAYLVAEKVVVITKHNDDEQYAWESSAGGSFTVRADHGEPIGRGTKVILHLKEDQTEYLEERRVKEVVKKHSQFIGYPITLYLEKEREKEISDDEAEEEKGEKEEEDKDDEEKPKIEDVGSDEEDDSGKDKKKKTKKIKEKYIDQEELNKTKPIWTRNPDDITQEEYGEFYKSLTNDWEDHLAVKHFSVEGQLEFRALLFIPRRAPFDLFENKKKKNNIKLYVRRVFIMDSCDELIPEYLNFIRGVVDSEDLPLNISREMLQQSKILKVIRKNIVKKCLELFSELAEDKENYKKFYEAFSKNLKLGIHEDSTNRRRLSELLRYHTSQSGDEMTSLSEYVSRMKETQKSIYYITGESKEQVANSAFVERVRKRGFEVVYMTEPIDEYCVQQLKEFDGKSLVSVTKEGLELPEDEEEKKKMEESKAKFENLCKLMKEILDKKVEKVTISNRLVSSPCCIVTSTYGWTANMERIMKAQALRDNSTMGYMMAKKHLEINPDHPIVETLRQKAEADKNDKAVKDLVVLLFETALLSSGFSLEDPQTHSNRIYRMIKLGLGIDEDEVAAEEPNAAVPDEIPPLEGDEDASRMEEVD
Chain of HSP90–CDC37–BRAF^V600E complex (human) (Q16543 whole entry, chain 2 of 3, further chain): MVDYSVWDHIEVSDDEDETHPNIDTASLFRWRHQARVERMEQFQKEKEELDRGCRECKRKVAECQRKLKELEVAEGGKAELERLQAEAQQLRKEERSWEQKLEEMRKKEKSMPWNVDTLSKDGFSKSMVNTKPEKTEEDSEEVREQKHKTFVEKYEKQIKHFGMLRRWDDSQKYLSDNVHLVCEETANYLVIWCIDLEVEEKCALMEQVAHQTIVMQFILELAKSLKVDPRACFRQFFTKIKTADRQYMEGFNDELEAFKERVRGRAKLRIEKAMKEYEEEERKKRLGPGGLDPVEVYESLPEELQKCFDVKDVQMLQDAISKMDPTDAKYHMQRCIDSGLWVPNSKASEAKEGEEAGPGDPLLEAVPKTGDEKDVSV
Chain of HSP90–CDC37–BRAF^V600E complex (human) (P15056 whole entry V600E, chain 3 of 3, further chain): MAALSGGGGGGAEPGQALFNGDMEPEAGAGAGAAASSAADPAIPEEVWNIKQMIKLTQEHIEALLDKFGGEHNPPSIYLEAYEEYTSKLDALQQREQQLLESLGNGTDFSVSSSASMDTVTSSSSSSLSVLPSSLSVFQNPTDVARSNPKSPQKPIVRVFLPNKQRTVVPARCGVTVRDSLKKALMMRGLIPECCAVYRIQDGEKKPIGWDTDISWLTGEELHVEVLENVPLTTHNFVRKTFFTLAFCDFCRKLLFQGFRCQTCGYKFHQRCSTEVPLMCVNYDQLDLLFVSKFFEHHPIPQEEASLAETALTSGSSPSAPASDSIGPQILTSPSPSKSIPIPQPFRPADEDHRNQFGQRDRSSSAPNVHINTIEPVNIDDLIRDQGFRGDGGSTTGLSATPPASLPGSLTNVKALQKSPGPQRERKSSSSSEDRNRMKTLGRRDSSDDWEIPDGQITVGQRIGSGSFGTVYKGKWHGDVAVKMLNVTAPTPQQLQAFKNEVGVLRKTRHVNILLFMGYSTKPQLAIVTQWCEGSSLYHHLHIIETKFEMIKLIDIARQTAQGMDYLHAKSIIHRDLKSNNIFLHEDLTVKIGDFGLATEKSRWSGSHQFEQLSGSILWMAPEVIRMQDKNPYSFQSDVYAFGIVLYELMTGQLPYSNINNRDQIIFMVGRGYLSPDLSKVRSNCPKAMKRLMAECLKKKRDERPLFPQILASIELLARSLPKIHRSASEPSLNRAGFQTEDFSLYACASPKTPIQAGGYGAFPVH

stoichiometry N: 1
B1: PP5 D274N (enzyme)
chain: RDEPPADGALKRAEELKTQANDYFKAKDYENAIKFYSQAIELNPSNAIYYGNRSLAYLRTECYGYALGDATRAIELDKKYIKGYYRRAASNMALGKFRAALRDYETVVKVKPHDKDAKMKYQECNKIVKQKAFERAIAGDEHKRSVVDSLDIESMTIEDEYSGPKLEDGKVTISFMKELMQWYKDQKKLHRKCAYQILVQVKEVLSKLSTLVETTLKETEKITVCGDTHGQFYDLLNIFELNGLPSETNPYIFNGDFVNRGSFSVEVILTLFGFKLLYPDHFHLLRGNHETDNMNQIYGFEGEVKAKYTAQMYELFSEVFEWLPLAQCINGKVLIMHGGLFSEDGVTLDDIRKIERNRQPPDSGPMCDLLWSDPQPQNGRSISKRGVSCQFGPDVTKAFLEENNLDYIIRSHEVKAEGYEVAHGGRCVTVFSAPNYCDQMGNKASYIHLQGSDLRPQFHQFTAVPHPNVKPMAYANTLLQLGMM

Source: publication PMC9709061
